From publication doi:10.1101/2022.06.11.495734 (bioRxiv, 2022)

Legend:
native gel or EMSA = target: the molecule itself; test: native gel or EMSA
non-reducing SDS-PAGE = target: the molecule itself; test: non-reducing SDS-PAGE
[1] = target: the molecule itself; test: SDS-PAGE after LAFS treatment
[2] = target: the molecule itself; test: reducing SDS-PAGE and immunoblot of parasite lysate

B1: recombinant Plasmodium falciparum 3D7 60S stalk ribosomal protein P2, 6x His-tag (natural protein, UniProt O00806 1-112, looked up)
chain: MAMKYVAAYLMCVLGGNENPSTKEVKNVLGAVNADVEDEVLNNFIDSLKGKSCHELITDGLKKLQNIGGGVAAAPAGAAAVETAEAKKEDKKEEKKEEEEEEEDDLGFSLFG
What does the source list for B1?
stoichiometry N (native gel or EMSA): 4; stoichiometry N (non-reducing SDS-PAGE): 2

B2: rec.PfP2 pre-reduced and alkylated with iodoacetamide (natural protein, Plasmodium falciparum 3D7, UniProt O00806 1-112, looked up)
chain: MAMKYVAAYLMCVLGGNENPSTKEVKNVLGAVNADVEDEVLNNFIDSLKGKSCHELITDGLKKLQNIGGGVAAAPAGAAAVETAEAKKEDKKEEKKEEEEEEEDDLGFSLFG
modifications: all cysteine residues pre-reduced and alkylated with Iodoacetamide (IAA)
For B2, which “stoichiometry N” value [1] is on record?
The value was 4.

B3: Plasmodium falciparum P2 protein, endogenous in wild type 3D7 parasites (natural protein, UniProt O00806 1-112, looked up)
chain: MAMKYVAAYLMCVLGGNENPSTKEVKNVLGAVNADVEDEVLNNFIDSLKGKSCHELITDGLKKLQNIGGGVAAAPAGAAAVETAEAKKEDKKEEKKEEEEEEEDDLGFSLFG
For B3, which “stoichiometry N” value [2] is on record?
The value was 4.

B4: PfP2-HA of transgenic P. falciparum 3D7 parasites (natural protein, Plasmodium falciparum 3D7, UniProt O00806 1-112, looked up)
chain: MAMKYVAAYLMCVLGGNENPSTKEVKNVLGAVNADVEDEVLNNFIDSLKGKSCHELITDGLKKLQNIGGGVAAAPAGAAAVETAEAKKEDKKEEKKEEEEEEEDDLGFSLFG
How did the “stoichiometry N” value [2] turn out when B4 was run?
The value was 4.
